Results taken from paper PMC11601597 (bioRxiv, 2024).
Positions count from the first letter of the chain named. Names and notes keep the numbering of the source.

Key:
[1] = biological target: K. pneumoniae OqxB (K. pneumoniae); assay: crystal structure
[2] = biological target: K. pneumoniae OqxB (K. pneumoniae); assay: cryo-EM structure
cryo-EM structure = biological target: the molecule itself; assay: cryo-EM structure
crystal structure = biological target: the molecule itself; assay: crystal structure

K. pneumoniae OqxB (natural protein) showed a stoichiometry N [1] of 3 and a stoichiometry N [2] of 3.

B1: E. coli AcrB V612F (natural protein)
chain: MPNFFIDRPIFAWVIAIIIMLAGGLAILKLPVAQYPTIAPPAVTISASYPGADAKTVQDTVTQVIEQNMNGIDNLMYMSSNSDSTGTVQITLTFESGTDADIAQVQVQNKLQLAMPLLPQEVQQQGVSVEKSSSSFLMVVGVINTDGTMTQEDISDYVAANMKDAISRTSGVGDVQLFGSQYAMRIWMNPNELNKFQLTPVDVITAIKAQNAQVAAGQLGGTPPVKGQQLNASIIAQTRLTSTEEFGKILLKVNQDGSRVLLRDVAKIELGGENYDIIAEFNGQPASGLGIKLATGANALDTAAAIRAELAKMEPFFPSGLKIVYPYDTTPFVKISIHEVVKTLVEAIILVFLVMYLFLQNFRATLIPTIAVPVVLLGTFAVLAAFGFSINTLTMFGMVLAIGLLVDDAIVVVENVERVMAEEGLPPKEATRKSMGQIQGALVGIAMVLSAVFVPMAFFGGSTGAIYRQFSITIVSAMALSVLVALILTPALCATMLKPIAKGDHGEGKKGFFGWFNRMFEKSTHHYTDSVGGILRSTGRYLVLYLIIVVGMAYLFVRLPSSFLPDEDQGVFMTMVQLPAGATQERTQKVLNEVTHYYLTKEKNNVESVFAFNGFGFAGRGQNTGIAFVSLKDWADRPGEENKVEAITMRATRAFSQIKDAMVFAFNLPAIVELGTATGFDFELIDQAGLGHEKLTQARNQLLAEAAKHPDMLTSVRPNGLEDTPQFKIDIDQEKAQALGVSINDINTTLGAAWGGSYVNDFIDRGRVKKVYVMSEAKYRMLPDDIGDWYVRAADGQMVPFSAFSSSRWEYGSPRLERYNGLPSMEILGQAAPGKSTGEAMELMEQLASKLPTGVGYDWTGMSYQERLSGNQAPSLYAISLIVVFLCLAALYESWSIPFSVMLVVPLGVIGALLAATFRGLTNDVYFQVGLLTTIGLSAKNAILIVEFAKDLMDKEGKGLIEATLDAVRMRLRPILMTSLAFILGVMPLVISTGAGSGAQNAVGTGVMGGMVTATVLAIFFVPVFFVVVRRRFSRKNEDIEHSHTVDHH
With B1 the “stoichiometry N” value (cryo-EM structure) was 3.

B2: E. coli AcrB V612W (natural protein)
chain: B1 chain with F612W
For B2, the “stoichiometry N” value (cryo-EM structure) was 3.

B3: E. coli AcrB V612N (natural protein)
chain: B1 chain with F612N
For B3, the “stoichiometry N” value (crystal structure) was 3.
